The target in assay [1] is Chaetomium thermophilum NAT10 (CtNAT10), E.coli produced recombinant (Chaetomium thermophilum). Description: mass photometry.
Assay [2] deals with Chaetomium thermophilum NAT10 (CtNAT10), Sf9 produced recombinant (Chaetomium thermophilum). Description: mass photometry.

In the case of “Chaetomium thermophilum NAT10 (CtNAT10), E.coli produced recombinant (enzyme)”, the stoichiometry N in assay [1] is 2. Turning to “Chaetomium thermophilum NAT10 (CtNAT10), Sf9 produced recombinant (enzyme)”, the stoichiometry N in assay [2] came out at 2.

The record behind these values is doi:10.1101/2024.03.27.587050.
